The record followed here is US20090041679A1.

Test [1] addresses purified H5N1 HA (influenza A virus H5N1).
The target is the same in test [2]. The source holds these as a separate data set.

Changes are numbered by the printed parent chain. Where two headings read alike, the source gives them in different places.

B1: BF1-1 (antibody, V domains shown)
VH: EVQLVQSGPGLVKPSETLSLTCTVSGSSMRTHYWTWIRQPPGKGLEWIGNIYYSGSTDYNPSLKSRVTISVDTSKNQFSLKLSSVTAADTAVYFCARTKHFDILPGGVFDMWGRGTTVTVSS
VL: SYELTQLPSVSVSPGQTATITCSGDRLGDKYACWYQQKPGQSPVLVIFQDTKRPSGIPERFSGSNSGNTATLTISGTQAMDEADYYCQAWDSNIGVFGGGTKLTVL
In test [1], B1 yielded a Kd of 20.3 nM.

B2: BF1-10 (antibody, V domains shown)
VH: QVQLQESGPGLVKPSQTLSLTCAVSGGSISSRGYYWSWIRQPPGKGLEWIGYIFYTGGTDYNPSLKSRITISRDTPKNQISLNLSSVTAADTAVYYCARVVDGSSGYHHYYFDYWGQGTLVTVSS
VL: DIQMTQSPASLAVSLGQRATISYRASKSVSTSGYSYMHWNQQKPGQPPRLLIYLVSNLESGVPARFSGSGSGTDFTLNIHPVEEEDAATYYCQHIRELTRSEGGPSWRSN
On to B2, for which the values for the dissociation constant Kd in test [1] and in test [2] were 10.8 nM and 10 to 50 nM, respectively.

B3: BF1-19 (antibody, V domains shown)
VH: QVQLQESGPGLVKPSETLSLTCTVSGSSMRTHYWTWIRQPPGKGLEWIGNIYYSGSTDYNPSLKSRVTISVDTSKNQFSLKLSSVTAADTAVYFCARTKHFDILPGGVFDMWGRGTTVSS
VL: B2 VL with Q3V, S106K, R108I
Turning to B3, the equilibrium dissociation constant (Kd) was 48.2 nM in test [1] and 10 to 50 nM in test [2].

Broadly, the Kd is the free concentration of one partner at which half of the binding sites on the other are occupied at equilibrium, for simple one-to-one binding.
